This is an account of results in patent US20070071744A1.

Common to all, as to experiment: PepSpot peptide array
For one assay, the target named is T1, peptide 7 (human).
T1 sequence (peptide, N-terminus acetylated): LCLGRVPAQSGPL

A further assay addresses T2, peptide 118 (human).
T2 sequence (peptide, N-terminus acetylated): TNKVFTTETSRSI

A further assay addresses T3, peptide 117 (human).
T3 sequence (peptide, N-terminus acetylated): SFTNKVFTTETSR

B1: monoclonal antibody hGP 5C4 (antibody, V domains shown)
VH: EVKLQESGGGLVQPGRSLKLSCTASGFTFSDYFMSWVRQAPTRGLEWVASISSGGASAYWRDSVKGRFTISRDNAKSALYLQMDSLRSEDTATYFCARGELDFDYWGQGVMVAVSS
VL: ADPNSTLLSASVGDRVTLNCTASQNVYKNLAWYQQKLGEAPRLLLYSANSQTGIPSRFSGSGSGPDFTLTISSLQPEDVASYFCQQYYSGNTFGAGTKLELKR
Consider B1, for which the figures for the LU (Light Units) in the assay with peptide 7 (human), with peptide 118 (human) and with peptide 117 (human) were 292 LU, 336 LU and 472 LU, respectively.
